Measured values taken from patent publication US20040014670A1 (AJINOMOTO, published 2004).

Tests used:
[1] = molecular target: rabbit pulmonal angiotensin converting enzyme (Sigma) (rabbit) (UniProt P12822); experiment: cell-based or functional assay
[2] = molecular target: T1, rabbit pulmonal angiotensin converting enzyme (Sigma) (rabbit, UniProt P12822 34-1310, limits assumed); experiment: cell-based or functional assay
T1 sequence (looked up): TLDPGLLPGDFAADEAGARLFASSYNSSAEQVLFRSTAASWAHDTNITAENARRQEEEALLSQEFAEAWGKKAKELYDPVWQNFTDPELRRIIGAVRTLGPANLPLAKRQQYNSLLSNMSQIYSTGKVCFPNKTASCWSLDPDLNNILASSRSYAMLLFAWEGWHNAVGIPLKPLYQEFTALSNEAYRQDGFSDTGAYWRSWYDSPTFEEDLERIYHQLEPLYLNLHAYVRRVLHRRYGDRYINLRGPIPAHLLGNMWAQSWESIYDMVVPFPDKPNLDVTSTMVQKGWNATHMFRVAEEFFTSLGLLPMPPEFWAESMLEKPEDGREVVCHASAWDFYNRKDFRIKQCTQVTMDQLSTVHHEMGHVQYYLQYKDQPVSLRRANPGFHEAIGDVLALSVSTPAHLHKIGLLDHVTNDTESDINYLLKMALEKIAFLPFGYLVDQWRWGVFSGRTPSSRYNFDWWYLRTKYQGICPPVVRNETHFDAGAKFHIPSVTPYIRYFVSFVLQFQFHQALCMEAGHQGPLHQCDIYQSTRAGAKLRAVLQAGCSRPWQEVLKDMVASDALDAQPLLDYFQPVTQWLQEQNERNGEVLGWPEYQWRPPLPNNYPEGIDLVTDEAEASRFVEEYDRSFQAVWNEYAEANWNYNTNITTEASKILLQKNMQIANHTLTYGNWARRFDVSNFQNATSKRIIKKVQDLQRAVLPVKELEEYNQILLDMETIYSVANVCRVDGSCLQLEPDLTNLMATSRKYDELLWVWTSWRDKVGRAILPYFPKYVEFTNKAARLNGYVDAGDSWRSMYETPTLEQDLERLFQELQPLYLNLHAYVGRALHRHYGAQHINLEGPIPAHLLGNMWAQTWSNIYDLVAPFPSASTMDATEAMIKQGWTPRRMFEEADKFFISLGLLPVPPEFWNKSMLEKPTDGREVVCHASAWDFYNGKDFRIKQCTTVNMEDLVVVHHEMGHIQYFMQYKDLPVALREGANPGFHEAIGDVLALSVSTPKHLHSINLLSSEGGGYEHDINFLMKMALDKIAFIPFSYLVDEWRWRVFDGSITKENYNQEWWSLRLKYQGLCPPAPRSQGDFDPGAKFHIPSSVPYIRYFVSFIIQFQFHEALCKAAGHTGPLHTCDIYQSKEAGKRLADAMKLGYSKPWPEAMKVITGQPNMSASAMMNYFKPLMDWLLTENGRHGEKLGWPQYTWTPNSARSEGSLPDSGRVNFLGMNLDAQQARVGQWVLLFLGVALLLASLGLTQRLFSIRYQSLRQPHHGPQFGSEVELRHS

## Bradykinin potentiator C (peptide)
[1]
  IC50 (µM), inhibition of angiotensin converting enzyme activity (colorimetry at 505 nm, substrate p-hydroxyl benzoyl glycyl-L-histidyl-L-leucine): 35 µM

## soybean protein hydrolysates prepared with protease D3
[1]
  IC50 value, the concentration for 50% inhibition against ACE: 180 µg/mL

## IPPGVPYWT [Ile-Pro-Pro-Gly-Val-Pro-Tyr-Trp-Thr]
[2]
  IC50 (µM), inhibition of angiotensin converting enzyme activity (colorimetry at 505 nm, substrate p-hydroxyl benzoyl glycyl-L-histidyl-L-leucine): 64 µM

## NWGPLV [Asn-Trp-Gly-Pro-Leu-Val]
[2]
  IC50 (µM), inhibition of angiotensin converting enzyme activity (colorimetry at 505 nm, substrate p-hydroxyl benzoyl glycyl-L-histidyl-L-leucine): 21 µM

## PNNKPFQ [Pro-Asn-Asn-Lys-Pro-Phe-Gln]
[2]
  IC50 (µM), inhibition of angiotensin converting enzyme activity (colorimetry at 505 nm, substrate p-hydroxyl benzoyl glycyl-L-histidyl-L-leucine): 33 µM
